Legend:
Assay in all cases: fluorescence polarisation
[1] = biological target: FITC-labelled HRK-BH3 peptide
[2] = biological target: Human BCL-2 removing the C-terminal 32 residues, C-terminal 6×His-tag (human) (UniProt P10415)
[3] = biological target: Human BCL-XL removing the C-terminal 22 residues, C-terminal 6×His-tag (human) (UniProt Q07817)
Chain of UniProt Q07817 (Q07817 1-211): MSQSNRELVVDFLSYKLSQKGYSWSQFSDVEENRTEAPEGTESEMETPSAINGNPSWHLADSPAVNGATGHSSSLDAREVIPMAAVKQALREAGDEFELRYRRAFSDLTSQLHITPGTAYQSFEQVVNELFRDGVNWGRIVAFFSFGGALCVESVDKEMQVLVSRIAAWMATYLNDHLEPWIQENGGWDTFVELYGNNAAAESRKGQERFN

Row | EC50 [1] | Ki [2] | Ki [3] | Substance
1 | 0.03 µM | – | – | Human BCL-2 removing the C-terminal 32 residues, C-terminal 6×His-tag (from UniProt P10415 1-207) (domain or fragment)
2 | – | 0.036 µM | 0.0018 µM | wild-type HRK-BH3 peptide (HRK-WT)

From article PMC12396273
